US8470576B2, “Group of novel enantioselective microbial nitrile hydratases with broad substrate specificity” (B.R.A.I.N. AG, priority 2006, dated 2013)

B1: NHase Seq ID No. 14 and 16: nitrile hydratase of Brevibacterium linens strain 32B.1, α-subunit SEQ ID NO 14, β-subunit SEQ ID NO 16 (protein)
alpha: MSDKIRSQEEIAARVKALESMLIEKGIMTTQAIDRLVEIYENEVGPQLGAKVVAKAWSDPGFKSRLLTDATGACGELGIGGLQGEDMVVVEDTDTVHNVIVCTLCSCYPWPVLGLPPNWYKDPQYRAAICREPRKVLSESFGYTVSNDVEIRVWDSSSEMRYWVLPRRPDGTDGWTEDQLADLVSRDSMIGVGPTAKAQS
beta: MNGVFDLAGTDGLGPVVVPDDEPIFRAEWEKAAFGMFSMCFRGGFFGVDQFRYGMEQIDPAVYLKSPYYEHWIHTVEYHGERTGQLDLDELDRRTEYYLANPDAPMPEHADDPELLAFINAVVPAGAPAKRESDKIARFQVGDTVKVLRDSPRGHTRRARYIRGATGEIVLAHGTFIYPDTAGNNLGECPEHVYTVRFTAEELWGAETAEPNQSVYFDVWDPYIELVTPRGAQSA
modifications: Brevibacterium linens, strain 32B.1
B2: NHase Seq ID No. 10 and 12: nitrile hydratase of Pantoea sp. strain 17.3.1, α-subunit SEQ ID NO 10, β-subunit SEQ ID NO 12 (protein)
alpha: MSNHDVLPSESALKVRAIQSLLTEKGLLDPQTSDAIVDYFENKIGPRNGASVVARAWLDAEFKKKLLEDGTTAISEMGFSGAEGAVIHVLENTDAVHNIVVCTLCSCYPWPVLGLPPIWFKSAQYRSRVVIDPRGVLKEFGTELPPEKEIRVWDSNAEIRYFVLPQRPAGTENLSEEQLAARVTRDSMIGTGIL
beta: MNGIHDCGGMQNLGAIPLEENEPVFHAEWEKAILVMTINGFLSGSILVDNFRHQIEKMPASEYLLTSYYEHWVFAMEHLLINNNTITREALESRMAELAERVEMSAIAKETFLELIKTTPNYHRESDAIARFAPGDTIRTCELNTPGHTRLPRYARDKTGVIIAMYGVCVFPDSLTRDGSEDPQHVYLVQFSSADLWGAGSEPFTVSLSLFESYIAEKVE
modifications: Pantoea sp., strain 17.3.1
B3: NHase Seq ID No. 6 and 8: nitrile hydratase of Raoultella terrigena strain 37.1, α-subunit SEQ ID NO 6, β-subunit SEQ ID NO 8 (protein)
alpha: MSHKHDHDHTEPPIDIELRVRALESLLQEKGLIDPAALDELIDTYEHKVGPRNGAQVVARAWSDPEYKRRLMENATAAISELGFSGIQGEDMLVVENTPDVHNVTVCTLCSCYPWPVLGLPPVWYKSAPYRSRIVIDPRGVLAEFGLHIPESKEIRVWDSSAELRYLVLPERPAGTDGWSEAQLSELISRDSMIGTGVVTAP
beta: MNGIHDLGGMHGFGPIPTEENEPYFHHEWERRVFPMFASLFVGGHFNVDEFRHSIECMPPADYLQSSYYEHWLHAFETLLLAKGVITVDELWGGAKPTLCKPGTPVLTQDMVSMVVSTGGSARVSHDVAPRFRVGDRVRTKNFNPTTHTRLPRYARDKVGRIEIAHGVFITPDTAAHGLGEHPQHVYSVSFTAQELWGEPRPDNVFIDLWDDYLEEA
modifications: Raoultella terrigena, strain 37.1

Legend:
Assay type in all cases: biochemical
[1] = test system: NHase from Raoultella terrigena, 77.1; test: Substrate spectrum, relative activity of the NHase from strain 77.1; details: cell free crude cell extracts; 2-phenylpropionitrile set to 100%
Description: (§1) If not otherwise indicated enzyme samples were prepared as follows: the cells from 1 ml of the culture were washed with 50 mM Tris/HCl pH 7.5 and resuspended in 750 μl of the same buffer. This suspension was incubated at 30° C. in a thermomixer at 1000 rpm. The biotransformation was started by addition of the substrate 2-phenylpropionitrile (PPN) in 50 mM Tris/HCl pH 7.5. The concentration of the substrate was 1 mM, if not otherwise stated. The reaction was stopped after 1 min, 5 min or 10 min as indicated by addition of 1 M HCl. Cells were removed by centrifugation and the supernatant analysed by HPLC for the presence of the corresponding amide. The HPLC analysis was carried out on a system comprising a Surveyor 4 channel Pump, AutoSampler and UVNIS detector at 210 nm from Thermo Finnigan on a Grom-Sil 1200DS-3 cp 3 μm (125×4.6 mm) reverse phase column. As mobile phase, acetonitrile and 0.3% H3PO4 were used in a ratio of 50:50 at a flow of 0.7 ml/min, respectively.
(§2) For the enzyme according Seq ID No. 2 and 4 (Raoultella terrigena, 77.1) and Seq ID. No. 18 and 20 (Klebsiella oxytoca, 38.1.2) the substrate spectrum was determined. The activities were compared to the activity towards 2-phenylpropionitrile which was set to 100%. Both enzymes are capable of the conversion of aliphatic as well as aromatic substrates.

[2] = test system: NHase from Klebsiella oxytoca, 38.1.2; test: Substrate spectrum, relative activity of the NHase from strain 38.1.2; details: lyophilized cells; 2-phenylpropionitrile set to 100%
Description: as §1, §2

[3] = Enantioselectivity of NHases towards rac-mandelonitrile (washed cells, chiral HPLC); details: for enantiopreference: (R/S)-mandelonitrile; for Eapp-value: kinetic resolution of (R/S)-mandelonitrile; for Eapp-value heterologously expressed / Eapp-value homologously expressed: rac-mandelonitrile; for Eapp-value heterologously expressed: heterologously expressed NHase; for Eapp-value homologously expressed: homologously expressed NHase
Description: For the determination of enantioselectivity towards rac-mandelonitrile and 2-phenylpropionitrile 40-50 mg of washed cells were resuspended in 1 ml of 50 mM Tris/HCl pH 7.5. 100 μl of cell suspension were mixed with 800 μl 50 mM Tris/HCl pH 7.5 and incubated at 30° C. in a thermomixer at 1000 rpm. The biotransformation was started by addition of 100 μl of 10 mM rac-mandelonitrile or rac-2-phenylpropionitrile in 50 mM Tris/HCl pH 7.5. The reaction was stopped by addition of 100 μl 1M HCl after 1, 5 or 10 min. Cells were removed by centrifugation and the supernatant analysed by chiral HPLC for the presence of mandeloamide and phenylpropionamide, respectively. rac-Mandeloamide was analysed on a HPLC comprising a Surveyor 4 channel Pump, AutoSampler and UVNIS detector at 210 nm from Thermo Finnigan on a Nucleodex β-OH column (Macherey & Nagel) using 50% methanol/water:water (40:60) as mobile phase at a flow rate of 0.7 ml/min. The apparent enantiomeric ratio (Eapp) of the conversion of mandelonitrile was calculated according to Straathof and Jongejan for […] (see example 9). In case of 2-phenylpropionamide, the samples were lyophilized and resuspended in n-hexane: 2-propanol (80:20). Prior to injection, the samples were additionally dried with sodium sulfate and were centrifugated at 16,000 g for 5 min. The supernatants were analyzed using a Chiracel OD column (Daicel) on a Spectra System (AS3000, P2000, UV2000 at 210 nm) from Thermo Separation Products with n-hexane: 2-propanol (80:20) as mobile phase at a flow rate of 0.5 ml/min. The enantiomeric ratio (E) of the conversion of PPN was calculated according to Chen et al. […]

[4] = Enantioselectivity of NHases towards rac-2-phenylpropionitrile (washed cells, chiral HPLC); details: for E-value: kinetic resolution of rac-2-phenylpropionitrile; for enantiopreference: rac-2-phenylpropionitrile
Description: For the determination of enantioselectivity towards rac-mandelonitrile and 2-phenylpropionitrile 40-50 mg of washed cells were resuspended in 1 ml of 50 mM Tris/HCl pH 7.5. 100 μl of cell suspension were mixed with 800 μl 50 mM Tris/HCl pH 7.5 and incubated at 30° C. in a thermomixer at 1000 rpm. The biotransformation was started by addition of 100 μl of 10 mM rac-mandelonitrile or rac-2-phenylpropionitrile in 50 mM Tris/HCl pH 7.5. The reaction was stopped by addition of 100 μl 1M HCl after 1, 5 or 10 min. Cells were removed by centrifugation and the supernatant analysed by chiral HPLC for the presence of mandeloamide and phenylpropionamide, respectively. rac-Mandeloamide was analysed on a HPLC comprising a Surveyor 4 channel Pump, AutoSampler and UVNIS detector at 210 nm from Thermo Finnigan on a Nucleodex β-OH column (Macherey & Nagel) using 50% methanol/water:water (40:60) as mobile phase at a flow rate of 0.7 ml/min. The apparent enantiomeric ratio (Eapp) of the conversion of mandelonitrile was calculated according to Straathof and Jongejan for asymmetric catalysis (see example 9). In case of 2-phenylpropionamide, the samples were lyophilized and resuspended in n-hexane: 2-propanol (80:20). Prior to injection, the samples were additionally dried with sodium sulfate and were centrifugated at 16,000 g for 5 min. The supernatants were analyzed using a Chiracel OD column (Daicel) on a Spectra System (AS3000, P2000, UV2000 at 210 nm) from Thermo Separation Products with n-hexane: 2-propanol (80:20) as mobile phase at a flow rate of 0.5 ml/min. The enantiomeric ratio (E) of the conversion of PPN was calculated according to Chen et al.

[5] = Activity of enzyme samples after heterologous expression of NHases in E. coli towards PPN; details: 1 mM PPN; stopped after 1 min; host E. coli BL21 (DE3) (a) or E. coli Rosetta (DE3) (b)
Description: The amplified α-subunits were ligated to pET22b whereas the β-subunits were ligated to pET26b by use of the unique NdeI and XhoI restriction enzyme recognition sites. E. coli BL21 (DE3) or E. coli Rosetta (DE3) was cotransformed with the vectors carrying the genes for the corresponding α- and β-subunits of the NHases. Freshly transformed cells were grown over night at 37° C. in 5 ml LB-medium containing 100 μg/ml ampicillin, 25 μg/ml kanamycin and 2% (w/v) glucose. In case of E. coli Rosetta (DE3) 12.5 μg/ml chloramphenicol was additionally used. 1 ml of this culture was used to inoculate 100 ml of LB-medium containing 100 μg/ml ampicillin, 25 μg/ml kanamycin and 1% (w/v) glucose. Cells were incubated at 20° C. or 30° C. on a gyratory shaker at 100 rpm. At an optical density O.D.595=1 cells were induced by addition of 100 μg/ml IPTG. Simultaneously, CoCl2*6H2O was added in a concentration of 250 μM. When the P16K activator protein from the strain Brevibacterium linens was coexpressed with the corresponding NHase E. coli Rosetta (DE3) pET22—32B1α pET26—32B.1β pBBR5—32B_P16K was grown in LB-medium containing 100 μg/ml ampicillin, 25 μg/ml kanamycin, 12.5 μg/ml chloramphenicol and 10 μg/ml gentamycin and 1% (w/v) glucose. Samples were taken 24 h after induction.
as §1

Molecule	rel. activity 77.1 [1] [%]	rel. activity 38.1.2 [2] [%]	enantiopreference [3]	Eapp-value [3]	Eapp-value heterologously expressed [3]	Eapp-value homologously expressed [3]	E-value [4]	enantiopreference [4]	spec. activity [5] [μkat/g cdw]	vol. activity [5] [μkat/L cultur]
butyronitrile	242	281								
N#CC(O)c1ccccc1 (stereo not drawn) [mandelonitrile]	5	9								
CCC(C#N)c1ccccc1 (stereo not drawn) [2-phenyl-butyronitrile]	1	18								
N#Cc1ccccc1 [benzonitrile]	18	25								
methacrylonitrile	109	138								
CC(C#N)c1ccccc1 (stereo not drawn) [2-phenyl-propionitrile]	100	100								
N#Cc1cccnc1 [3-cyanopyridine]	21									
N#CCc1ccccc1 [phenyl-acetonitrile]	1	1								
B1			(S)	4	4	4	8	(S)	16.9	25.3
B2			(S)	4	4	5	2	(S)	0.4	0.6
B3			(S)	18	18	17	47	(S)	2.8	5.5
